Here are results for one substance from patent US20100119588A1.

The assay deals with hemagglutinin H1 on influenza virus A/Puerto Rico/8/34 strain (H1N1) (influenza virus A/Puerto Rico/8/34 (H1N1)) (UniProt P03452). Nature of the assay: cell-based or functional assay.

For C18-s2(1-4)P4A (C18-ARLA peptide amide), the IC50(µM), plaque assay, infection of MDCK cells is > 100 µM.
